Test results taken from PMC10746525, “Interaction between the mitochondrial adaptor MIRO and the motor adaptor TRAK” (The Journal of Biological Chemistry, 2023).
Positions count from the first letter of the chain named.

B1: MIRO1_(177-591) (domain or fragment, human, UniProt Q8IXI2 177-591, looked up)
chain: EEKEMKPACIKALTRIFKISDQDNDGTLNDAELNFFQRICFNTPLAPQALEDVKNVVRKHISDGVADSGLTLKGFLFLHTLFIQRGRHETTWTVLRRFGYDDDLDLTPEYLFPLLKIPPDCTTELNHHAYLFLQSTFDKHDLDRDCALSPDELKDLFKVFPYIPWGPDVNNTVCTNERGWITYQGFLSQWTLTTYLDVQRCLEYLGYLGYSILTEQESQASAVTVTRDKKIDLQKKQTQRNVFRCNVIGVKNCGKSGVLQALLGRNLMRQKKIREDHKSYYAINTVYVYGQEKYLLLHDISESEFLTEAEIICDVVCLVYDVSNPKSFEYCARIFKQHFMDSRIPCLIVAAKSDLHEVKQEYSISPTDFCRKHKMPPPQAFTCNTADAPSKDIFVKLTTMAMYPHVTQADLKSST
notes: Cloned into pETDuet-1; As purified it held 37.0% GDP and 63.0% GTP; samples exchanged with GDP or GTP were also used; also called MIRO1 EF-hands and cGTPase; source: E. coli ArcticExpress(DE3), purified (Ni-NTA, SourceQ flowthrough)
B2: TRAK1_(394-434) (peptide, UniProt Q9UPV9 394-434, looked up)
peptide: PDITHQKRVFETVRNINQVVKQRSLTPSPMNIPGSNQSSAM
notes: Cloned into pMAL-c6T; also called TRAK1 peptide narrowly encompassing CR2; not shown: 6xHis-MBP, N-terminal, cleaved
B3: MIRO1_(1-591) (domain or fragment, human, UniProt Q8IXI2 1-591, looked up)
chain: MKKDVRILLVGEPRVGKTSLIMSLVSEEFPEEVPPRAEEITIPADVTPERVPTHIVDYSEAEQSDEQLHQEISQANVICIVYAVNNKHSIDKVTSRWIPLINERTDKDSRLPLILVGNKSDLVEYSSMETILPIMNQYTEIETCVECSAKNLKNISELFYYAQKAVLHPTGPLYCPEEKEMKPACIKALTRIFKISDQDNDGTLNDAELNFFQRICFNTPLAPQALEDVKNVVRKHISDGVADSGLTLKGFLFLHTLFIQRGRHETTWTVLRRFGYDDDLDLTPEYLFPLLKIPPDCTTELNHHAYLFLQSTFDKHDLDRDCALSPDELKDLFKVFPYIPWGPDVNNTVCTNERGWITYQGFLSQWTLTTYLDVQRCLEYLGYLGYSILTEQESQASAVTVTRDKKIDLQKKQTQRNVFRCNVIGVKNCGKSGVLQALLGRNLMRQKKIREDHKSYYAINTVYVYGQEKYLLLHDISESEFLTEAEIICDVVCLVYDVSNPKSFEYCARIFKQHFMDSRIPCLIVAAKSDLHEVKQEYSISPTDFCRKHKMPPPQAFTCNTADAPSKDIFVKLTTMAMYPHVTQADLKSST
notes: Cloned into pRSFDuet-1; also called mitochondrial Rho GTPase 1, near full-length construct lacking the C-terminal transmembrane helix; source: E. coli ArcticExpress(DE3), purified (Ni-NTA, Strep-Tactin)
B4: TRAK1_(99-532) (domain or fragment, human, UniProt Q9UPV9 99-532, looked up)
chain: AERVGQMTKTYNDIDAVTRLLEEKERDLELAARIGQSLLKKNKTLTERNELLEEQVEHIREEVSQLRHELSMKDELLQFYTSAAEESEPESVCSTPLKRNESSSSVQNYFHLDSLQKKLKDLEEENVVLRSEASQLKTETITYEEKEQQLVNDCVKELRDANVQIASISEELAKKTEDAARQQEEITHLLSQIVDLQKKAKACAVENEELVQHLGAAKDAQRQLTAELRELEDKYAECMEMLHEAQEELKNLRNKTMPNTTSRRYHSLGLFPMDSLAAEIEGTMRKELQLEEAESPDITHQKRVFETVRNINQVVKQRSLTPSPMNIPGSNQSSAMNSLLSSCVSTPRSSFYGSDIGNVVLDNKTNSIILETEAADLGNDERSKKPGTPGTPGSHDLETALRRLSLRRENYLSERRFFEEEQERKLQELAEKGE
notes: Cloned into pRSFDuet-1; codon-optimised synthetic cDNA; source: E. coli ArcticExpress(DE3), purified (Strep-Tactin, Ni-NTA)
B5: MBP-MIRO1_(1-180) (domain or fragment, human, UniProt Q8IXI2 1-180, looked up)
chain: MKKDVRILLVGEPRVGKTSLIMSLVSEEFPEEVPPRAEEITIPADVTPERVPTHIVDYSEAEQSDEQLHQEISQANVICIVYAVNNKHSIDKVTSRWIPLINERTDKDSRLPLILVGNKSDLVEYSSMETILPIMNQYTEIETCVECSAKNLKNISELFYYAQKAVLHPTGPLYCPEEKE
notes: human MIRO1, residues 1-180 (nGTPase); Cloned into pMAL-c6T; also called nGTPase of MIRO1 fused to MBP; source: E. coli ArcticExpress(DE3), purified (Strep-Tactin, MonoQ); not shown: MBP, N-terminal, kept
B6: MBP-TRAK1_(342-431) (domain or fragment, human, UniProt Q9UPV9 342-431, looked up)
chain: EAQEELKNLRNKTMPNTTSRRYHSLGLFPMDSLAAEIEGTMRKELQLEEAESPDITHQKRVFETVRNINQVVKQRSLTPSPMNIPGSNQS
notes: GCN4 of m5 replaced with MBP; Cloned into pMAL-c6T; source: E. coli ArcticExpress(DE3), purified (amylose, Strep-Tactin); not shown: MBP, N-terminal, kept
B7: MBP-TRAK1_(342-431) ^400KR^401 to AA (domain or fragment, human, UniProt Q9UPV9 342-431, looked up)
chain: B6 chain with K59A, R60A
notes: source: E. coli ArcticExpress(DE3), purified (amylose, Strep-Tactin); not shown: MBP, N-terminal, kept

Key:
MBP-TRAK1_(342-431) [1] = molecular target: B6; assay: ITC; VP-ITC, 25 °C; ITC buffer (20 mM Hepes pH 7.5, 400 mM NaCl, 1 mM MgCl2, 5% w/v sucrose, 0.1 μM GTP) with 5 mM EGTA; the binder of each row in the syringe; conditions: both partners purified
MBP-TRAK1_(342-431) [2] = molecular target: B6; assay: ITC; VP-ITC, 25 °C; ITC buffer (20 mM Hepes pH 7.5, 400 mM NaCl, 1 mM MgCl2, 5% w/v sucrose, 0.1 μM GTP) with 50 μM CaCl2; MIRO1_(177-591) in the syringe, TRAK1 construct in the cell; conditions: both partners purified
MIRO1_(177-591) [3] = molecular target: B1; assay: ITC; VP-ITC, 25 °C; ITC buffer (20 mM Hepes pH 7.5, 400 mM NaCl, 1 mM MgCl2, 5% w/v sucrose, 0.1 μM GTP) with 5 mM EGTA; the binder of each row in the syringe; conditions: both partners purified
[4] = molecular target: the molecule itself; assay: mass photometry; Refeyn TwoMP, 125-150 nM protein, 100 mM NaCl, 50 μM MgCl2, 50 μM GTP with 1 mM EGTA or 100 μM CaCl2
MIRO1_(1-591) = molecular target: B3; assay: co-sedimentation; 5-30% glycerol gradient, proteins mixed at 4 μM each in 20 mM Hepes pH 7.5, 500 mM NaCl, 1 mM MgCl2, 1 mM CaCl2, 1 mM DTT, 0.1 μM GTP; 165,000g, 16 h, 4 °C; fractions on SDS-PAGE; conditions: both partners purified
MIRO1_(177-591) E208A = molecular target: T1, MIRO1_(177-591) E208A (human, UniProt Q8IXI2 177-591, E208A); assay: ITC; VP-ITC, 25 °C; ITC buffer (20 mM Hepes pH 7.5, 400 mM NaCl, 1 mM MgCl2, 5% w/v sucrose, 0.1 μM GTP) with 5 mM EGTA; the binder of each row in the syringe; conditions: both partners purified
T1 construct: source: E. coli ArcticExpress(DE3), purified (Ni-NTA, SourceQ flowthrough)

MIRO1_(177-591) E328A = molecular target: T2, MIRO1_(177-591) E328A (human, UniProt Q8IXI2 177-591, E328A); assay: as above; conditions: both partners purified
T2 construct: source: E. coli ArcticExpress(DE3), purified (Ni-NTA, SourceQ flowthrough)

MIRO1_(177-591) [5] = molecular target: B1; assay: ITC; VP-ITC, 25 °C; ITC buffer (20 mM Hepes pH 7.5, 400 mM NaCl, 1 mM MgCl2, 5% w/v sucrose, 0.1 μM GTP) with 50 μM CaCl2; MIRO1_(177-591) in the syringe, TRAK1 construct in the cell; conditions: both partners purified

Binder: B1
stoichiometry N (MBP-TRAK1_(342-431) [1]): 1.09 | stoichiometry N (MBP-TRAK1_(342-431) [2]): 1.11

Binder: B2
binding result (MIRO1_(177-591) [3]): binds

Binder: B3
binding result [4]: binds

Binder: B4
binding result (MIRO1_(1-591)): binds

Binder: B5
binding result [4]: binds

Binder: B6
Kd (MIRO1_(177-591) [3]): 8.77 µM | binding result (MIRO1_(177-591) E208A): binds | binding result (MIRO1_(177-591) E328A): binds | Kd (MIRO1_(177-591) [5]): 2760 nM

Binder: B7
binding result (MIRO1_(177-591) [3]): binds
